# ± gives the uncertainty stated by the source.
# Assay: self-splicing fitness, log relative to wild type (ln ratio); higher = more splicing; Tetrahymena group I intron in knt gene, E. coli kanamycin selection, DiMSum; sequences stand for … in CUCUCU…GGAGGGAAAAGUUAUCAGGCAUGCACCUGGUAGCUAGUCUUUAAACCAAUAGAUUGCAUCGGUUUAAAAGGCAAGACCGUCAAAUUGCGGGAAAGGGGUCAACAGCCGUUCAGUACCAAGUCUCAGGGGAAACUUUGAGAUGGCCUUGCAAAGGGUAUGGUAAUAAGCUGACGGACAUGGUCCUAACCACGCAGCCAAGUCCUAAGUCAACAGAUCUUCUGUUGAUAUGGAUGCAGUUCACAGACUAAAUGUCGGUCGGGGAAGAUGUAUUCUUCUCAUAAGAUAUAGUCGGACCUCUCCUUAAUGGGAGCUAGCGGAUGAAGUGAUGCAACACUGGAGCCGCUGGGAACUAAUUUGUAUGCGAAAGUAUAUUGAUUAGUUUUGGAGUACUCGUGGUCG
# In short: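 Six replicate transformations of E. coli BL21(DE3) with a pET-22b(+) library were grown overnight at 37°C or 30°C. The library randomised all eight P1ex-region intron nucleotides, the intron lying in the knt kanamycin-resistance gene, and plates were LB agar with or without 25 μg/mL kanamycin plus 100 μg/mL carbenicillin, 50 μM IPTG and 0.2% rhamnose. Pooled colonies were amplicon-sequenced on an Illumina HiSeq 2500, and fitness is the DiMSum error-weighted combination of wild-type-normalised replicate fold changes, kanamycin versus none.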
Sequence,self-splicing fitness (ln) (30 °C),self-splicing fitness (ln) (37 °C)
CGGAAGCAAUAUUACGAUUC,-3.95 ± 0.43,-2.28 ± 0.45
CGGAAGCAAUAUUACGCAUU,-3.52 ± 0.3,-2.98 ± 0.29
CGGAAGCAAUAUUACGCCAU,-3.61 ± 0.34,-2.84 ± 0.32
CGGAAGCAAUAUUACGCGCG,-3.13 ± 0.33,-0.88 ± 0.24
CGGAAGCAAUAUUACGCGGG,-1.64 ± 0.16,-1.35 ± 0.18
CGGAAGCAAUAUUACGCUCU,–,-1.81 ± 0.44
CGGAAGCAAUAUUACGGCUA,-2.54 ± 0.46,-0.623 ± 0.28
CGGAAGCAAUAUUACGGUGC,-3.17 ± 0.19,-2.28 ± 0.19
CGGAAGCAAUAUUACGUACC,-2.22 ± 0.066,-0.907 ± 0.085
CGGAAGCAAUAUUACGUAGA,-3.45 ± 0.2,-1.82 ± 0.19
CGGAAGCAAUAUUACGUAGU,-3.43 ± 0.14,-1.97 ± 0.13
CGGCAGCAAUAUUACGACGG,-0.297 ± 0.088,0.852 ± 0.15
CGGCAGCAAUAUUACGACUU,-0.541 ± 0.06,-0.196 ± 0.08
CGGCAGCAAUAUUACGAGCG,-0.946 ± 0.09,-0.441 ± 0.11
CGGCAGCAAUAUUACGAGGC,-2.99 ± 0.32,-2.53 ± 0.49
CGGCAGCAAUAUUACGAUCC,-2 ± 0.13,-1.03 ± 0.21
CGGCAGCAAUAUUACGAUUA,-2.86 ± 0.22,-2.17 ± 0.2
CGGCAGCAAUAUUACGCAAA,-2.77 ± 0.2,-2.43 ± 0.22
CGGCAGCAAUAUUACGCAUC,-3.25 ± 0.26,-2.39 ± 0.41
CGGCAGCAAUAUUACGCCCA,0.189 ± 0.12,-0.0939 ± 0.14
CGGCAGCAAUAUUACGCGUC,-4.09 ± 0.25,-2.4 ± 0.18
CGGCAGCAAUAUUACGCUAU,-3.57 ± 0.28,-2.75 ± 0.26
CGGCAGCAAUAUUACGGAAA,-3.57 ± 0.26,-2.7 ± 0.18
CGGCAGCAAUAUUACGGAAG,-1.07 ± 0.09,-0.442 ± 0.12
CGGCAGCAAUAUUACGGACG,-2.73 ± 0.21,-2.42 ± 0.28

Sequence,self-splicing fitness (ln) (30 °C),self-splicing fitness (ln) (37 °C)
CGGCAGCAAUAUUACGGACU,-2.26 ± 0.17,-1.34 ± 0.2
CGGCAGCAAUAUUACGGGGA,-3.21 ± 0.16,-3.07 ± 0.21
CGGCAGCAAUAUUACGGGUA,-3.66 ± 0.25,-2.84 ± 0.19
CGGCAGCAAUAUUACGUAUG,-1.55 ± 0.048,-0.303 ± 0.065
CGGCAGCAAUAUUACGUUAU,-2.5 ± 0.17,-2.56 ± 0.21
CGGCAGCAAUAUUACGUUUU,-3.75 ± 0.17,-2.09 ± 0.14
CGGGAGCAAUAUUACGAAGU,–,-1.89 ± 0.43
CGGGAGCAAUAUUACGAGCC,-0.749 ± 0.46,–
CGGGAGCAAUAUUACGAGGG,-2.28 ± 0.29,–
CGGGAGCAAUAUUACGAUGG,-2.44 ± 0.2,-0.953 ± 0.24
CGGGAGCAAUAUUACGAUUG,-2.22 ± 0.46,-1.72 ± 0.34
CGGGAGCAAUAUUACGCACU,-2.4 ± 0.24,-2.65 ± 0.25
CGGGAGCAAUAUUACGCCGG,-2.87 ± 0.46,-1.81 ± 0.34
CGGGAGCAAUAUUACGCGCA,–,-0.737 ± 0.49
CGGGAGCAAUAUUACGCGUC,-2.87 ± 0.22,-2.8 ± 0.27
CGGGAGCAAUAUUACGGAAG,-2.64 ± 0.18,-1.3 ± 0.17
CGGGAGCAAUAUUACGGCAU,–,-1.8 ± 0.35
CGGGAGCAAUAUUACGGUAU,-3.81 ± 0.47,-2.36 ± 0.42
CGGGAGCAAUAUUACGGUGG,-3.1 ± 0.37,-2.43 ± 0.45
CGGGAGCAAUAUUACGUAUG,-3.99 ± 0.35,–
CGGGAGCAAUAUUACGUGGG,-2.97 ± 0.35,–
CGGGAGCAAUAUUACGUUCU,-3.58 ± 0.18,-1.49 ± 0.19
CGGUAGCAAUAUUACGAACG,-1.54 ± 0.13,-1.29 ± 0.14
CGGUAGCAAUAUUACGAGAG,-3.4 ± 0.19,-0.673 ± 0.11
CGGUAGCAAUAUUACGCCUC,-2.36 ± 0.38,-0.282 ± 0.29

# From the supplement of paper PMC7877785
